Drawing on PMC4417367, this text covers percent decrease of the HSP90/GR ratio against wild type EGFP-GR for 1 substance.

The target in the assay is EGFP-GR C683A, L687-690A (rat) (UniProt P06536). Description: co-IP.

Turning to heat shock protein 90 (natural protein), the percent decrease of the HSP90/GR ratio against wild type EGFP-GR came to 62.7%.
